Publication PMC3549490
Several values for one entry are separate records, joined by “and”; a condition that tells them apart may be missing. Identical values can stand only once.

Key:
[1] = molecular target: UNC-45 Q452pBpa (wild-type Q452B) (C. elegans); experiment: cross-linking
[2] = molecular target: UNC-45 (C. elegans), full-length recombinant protein (C. elegans); experiment: ITC

stoichiometry N [1] | Substance | Kd [2]
2 and > 5 | UNC-45 Q452pBpa (wild-type Q452B) (natural protein) | 
 | Hsp90 (DAF-21 in C. elegans), full-length recombinant protein (from UniProt Q18688 1-702) (natural protein) | 31 µM
